Results reported in PMC2173848 (The Journal of Cell Biology, 2002).

Biological target: T1, GST-Sec34p (S. cerevisiae, UniProt P40094 1-801)
T1 sequence (looked up): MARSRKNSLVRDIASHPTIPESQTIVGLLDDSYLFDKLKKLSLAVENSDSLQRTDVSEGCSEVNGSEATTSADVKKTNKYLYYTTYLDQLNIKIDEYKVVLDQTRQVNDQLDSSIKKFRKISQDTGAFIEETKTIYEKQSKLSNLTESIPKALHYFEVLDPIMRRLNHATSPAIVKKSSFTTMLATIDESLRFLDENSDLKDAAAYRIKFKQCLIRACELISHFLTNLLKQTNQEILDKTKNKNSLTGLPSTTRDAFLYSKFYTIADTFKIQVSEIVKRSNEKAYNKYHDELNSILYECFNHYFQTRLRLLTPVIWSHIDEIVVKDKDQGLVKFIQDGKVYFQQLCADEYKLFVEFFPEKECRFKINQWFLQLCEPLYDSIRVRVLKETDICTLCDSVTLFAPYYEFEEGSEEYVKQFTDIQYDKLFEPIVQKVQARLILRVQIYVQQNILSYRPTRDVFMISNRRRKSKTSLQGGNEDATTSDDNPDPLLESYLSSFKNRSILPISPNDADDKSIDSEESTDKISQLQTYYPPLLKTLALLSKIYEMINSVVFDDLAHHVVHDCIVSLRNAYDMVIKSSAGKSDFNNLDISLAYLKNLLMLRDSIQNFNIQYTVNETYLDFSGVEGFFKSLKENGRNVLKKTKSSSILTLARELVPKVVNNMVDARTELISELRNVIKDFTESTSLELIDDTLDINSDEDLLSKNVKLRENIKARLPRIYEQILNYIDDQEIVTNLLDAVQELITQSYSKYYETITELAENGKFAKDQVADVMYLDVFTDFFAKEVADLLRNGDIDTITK
Assay: pull-down

percent recovered on the beads: ~3%
B1: Sec35p (natural protein, S. cerevisiae (endogenous in yeast), UniProt P53271 1-262, looked up)
chain: MDFLNDDELDLDLPVTAEISKELFATEIEKYRESETNGTDVDNFDVDRFLVQKNFHYLPLDSLIRDLSGLSQKMVQTLLEQIRSNYDDYLTFSNTYTDEENETLINLEKTQSDLQKFMTQLDHLIKDDISNTQEIIKDVLEYLKKLDEIYGSLRNHSQLTEALSLGKRLSKSLHEMCGIEPLEEEICSGLIEQLYKLITASRRILESCADSNSPYIHHLRNDYQDLLQEFQISLKILTEKCLENPSSLQNLSLTLVSIIKTA
